Our source for the magnitude of the ATP/Tg induced decrease in fluorescence; concentration printed as 'tested at' (FIG. 9 concentration series) values is patent publication US20050250090A1, “Assay systems and methods for detecting molecules that interact with SK2 channels” (priority 2003, published 2005).

The assay deals with human SK2 isoform hSK2A+ (small-conductance calcium-activated potassium channel protein), stably exp (human), Q9H2S1. As to the kind of experiment: cell-based or functional assay.
Sequence of human SK2 isoform hSK2A+ (small-conductance calcium-activated potassium channel protein), stably exp (human), Q9H2S1 (Q9H2S1 other isoform, or with tags, fused parts or gaps): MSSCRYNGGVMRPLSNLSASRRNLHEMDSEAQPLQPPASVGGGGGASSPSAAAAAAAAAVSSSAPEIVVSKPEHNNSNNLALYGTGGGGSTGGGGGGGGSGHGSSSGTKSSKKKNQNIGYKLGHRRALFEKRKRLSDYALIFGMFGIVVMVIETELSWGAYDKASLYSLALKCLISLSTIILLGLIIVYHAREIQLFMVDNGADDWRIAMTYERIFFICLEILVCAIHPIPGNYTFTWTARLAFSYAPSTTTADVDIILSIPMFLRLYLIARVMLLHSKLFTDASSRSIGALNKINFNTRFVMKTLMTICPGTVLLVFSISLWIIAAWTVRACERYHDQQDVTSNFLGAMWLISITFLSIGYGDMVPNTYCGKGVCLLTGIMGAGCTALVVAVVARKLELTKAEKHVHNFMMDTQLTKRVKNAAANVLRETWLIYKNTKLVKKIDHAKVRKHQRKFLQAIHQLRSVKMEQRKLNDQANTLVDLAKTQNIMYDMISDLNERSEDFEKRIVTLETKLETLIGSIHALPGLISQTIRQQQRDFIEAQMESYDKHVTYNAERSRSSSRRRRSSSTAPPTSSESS

B1: scyllatoxin, P16341 1-31 (peptide)
peptide: AFCNLRMCQLSCRSLGLLGKCIGDKCECVKH
modifications: not checked
Take B1: the magnitude of the ATP/Tg induced decrease in fluorescence; concentration printed as 'tested at' (FIG. 9 concentration series) came to 1.1 nM.
